PMC8674358
“And” between values parts separate entries of the source, which are not always exact repeats. Identical values can stand only once.

Experiments:
[1] = target: IRE1-KR-0P: human IRE1α kinase-endoribonuclease module (residues G547-L977), unphosphorylated (human) (UniProt O75460); assay: cross-linking; 1 μg IRE1-KR (~0.8 μM) or various concentrations in RNA cleavage buffer (20 mM HEPES pH 7.5, 50 mM K acetate, 1 mM Mg acetate, 0.05% Triton X-100), 250 μM DSS, 1 h on ice; SDS-PAGE and IRE1α immunoblot; also with CRUK-3 (5 µM), which augmented KR-0P dimerization and oligomerization
[2] = target: IRE1-KR-3P: human IRE1α kinase-endoribonuclease module (residues G547-L977), fully phosphorylated (human) (UniProt O75460); assay: as above

Substance | stoichiometry N [1] | stoichiometry N [2]
IRE1-KR-0P: human IRE1α kinase-endoribonuclease module (residues G547-L977), unphosphorylated (from UniProt O75460 547-977) (domain or fragment) | 2 | 
IRE1-KR-3P: human IRE1α kinase-endoribonuclease module (residues G547-L977), fully phosphorylated (from UniProt O75460 547-977) (domain or fragment) |  | 2 and 4 and 6
